The values that follow come from publication PMC9080447 (Biochemistry, 2021).

What all share (experiment): native MS
Series [1] concerns the target His6-tagged Salmonella FrlB E224Q/H240N (Salmonella).
For series [2], the target named is wild-type Salmonella FrlB deglycase (Salmonella).
The series “native MS” concerns the molecule itself.

As usually defined, the stoichiometry N is a count of units in the complex or per binding partner. In turn, “His6-tagged Salmonella FrlB E224Q/H240N (enzyme)” yielded a stoichiometry N in series [1] of 2.
Turning to “wild-type Salmonella FrlB deglycase (enzyme)”, the stoichiometry N in series [2] was 2.

B1: His6-tagged Salmonella YidA (enzyme, UniProt A0A0F6B8Z9 1-281, looked up)
chain: MAIKLIAIDMDGTLLLPDHTISPAVKNAIAAAREKGVNVVLTTGRPYAGVHSYLKELHMEQPGDYCITYNGALVQKAGDGSTVAQTALSYDDYRYLEKLSREVGSHFHALDRNTLYTANRDISYYTVHESYVATIPLVFCEAEKMDPNTQFLKVMMIDEPAVLDRAIARIPAEVKEKYTVLKSAPYFLEILDKRVNKGTGVKSLVEALGIKPEEVMAIGDQENDIAMIEYAGMGVAMDNAIPSVKEVANFVTKSNLEDGVAWAIEKFVLNPDHSSGHFPAR
Turning to B1, the “stoichiometry N” value in the series “native MS” was found to be 2.
